# From patent publication US20260258158A1 (Janssen / Centocor, published 2026)
# Biological target: T1, Biotinylated Human CD3 epsilon&CD3 delta Heterodimer Protein, His, Avitag&Tag Free (AcroBiosystems) (human, UniProt P07766 23-126; P04234 22-105)
# T1 construct: also called cluster of differentiation 3 (CD3); soluble CD3 antigen
# Test: BLI, biotinylated CD3 epsilon/delta on the tip, antibody as analyte (FIG. 24C)
# Text: In the BLI assay for CD3, due to nonspecific binding from the soluble CD3 antigen (Biotinylated Human CD3 epsilon&CD3 delta Heterodimer Protein, His, Avitag™&Tag Free from AcroBiosystems), the assay was reversed, i.e., immobilizing the antigen to the tip and using the bispecific antibodies as the analyte.
# T1 sequence (P07766 23-126, stated change not applied, chain 1 of 2): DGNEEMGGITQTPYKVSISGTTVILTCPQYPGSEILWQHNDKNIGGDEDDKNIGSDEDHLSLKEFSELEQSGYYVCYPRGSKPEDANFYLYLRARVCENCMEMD
# T1 sequence (P04234 22-105, stated change not applied, chain 2 of 2): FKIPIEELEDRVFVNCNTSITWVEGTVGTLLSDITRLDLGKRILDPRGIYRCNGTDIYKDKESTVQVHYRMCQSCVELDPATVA
binder,measurement,value
"HLPPB423 (bispecific antibody, human IgG1, kappa) heavy 1: not shown light 1: not shown heavy 2: EVQLVESGGGLVQPGGSLRLSCAASGYSFTGYTMNWVRQAPGKGLEWVALINPYKGVSTYNQKFKDRFTISVDKSKNTAYLQMNSLRAEDTAVYYCARSGYYGDSDWYFDVWGQGTLVTVSSASTKGPSVFPLAPSSKSTSGGTAALGCLVKDYFPEPVTVSWNSGALTSGVHTFPAVLQSSGLYSLSSVVTVPSSSLGTQTYICNVNHKPSNTKVDKKVEPKSCDKTHTCPPCPAPELLGGPSVFLFPPKPKDTLMISRTPEVTCVVVDVSHEDPEVKFNWYVDGVEVHNAKTKPREEQYNSTYRVVSVLTVLHQDWLNGKEYKCKVSNKALPAPIEKTISKAKGQPREPQVYTLPPSREEMTKNQVSLSCAVKGFYPSDIAVEWESNGQPENNYKTTPPVLDSDGSFFLVSKLTVDKSRWQQGNVFSCSVMHEALHNRFTQKSLSLSPGK light 2: not shown",binding result,binds
